Laboratory results reported in patent US20100130424A1 (Janssen / Centocor, published 2010).
Where a chain is given by its changes, count along the chain named. Blank lines part the entries; values can stand above or below the binder they belong to. No end group written: not given here.

Molecular target: T1, human CRH receptor type 2 (human, UniProt Q13324 1-411)
T1 sequence (looked up): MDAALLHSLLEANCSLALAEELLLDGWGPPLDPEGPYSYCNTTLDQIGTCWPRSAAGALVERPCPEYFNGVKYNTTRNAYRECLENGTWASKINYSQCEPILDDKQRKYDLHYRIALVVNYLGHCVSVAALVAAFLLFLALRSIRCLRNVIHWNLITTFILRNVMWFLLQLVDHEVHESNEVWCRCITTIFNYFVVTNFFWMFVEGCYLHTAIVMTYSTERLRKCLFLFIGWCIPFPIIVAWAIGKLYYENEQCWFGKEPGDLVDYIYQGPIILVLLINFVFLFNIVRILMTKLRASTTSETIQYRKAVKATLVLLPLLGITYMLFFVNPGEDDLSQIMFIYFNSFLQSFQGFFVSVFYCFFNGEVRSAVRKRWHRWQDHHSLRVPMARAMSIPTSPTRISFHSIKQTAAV
Test: cell-based or functional assay

B1: Cys-variant CRHR2 peptide agonist, SEQ ID NO: 27 (peptide)
peptide: TKFTLSLDVPTNIMNLLFNIAKAKNCRAQAAANAHLMAQI-NH2
Log DR against h-SCP, cAMP: 0.76 log10 ratio | pA50, cAMP: 8.76 -log M

B2: Cys-variant CRHR2 peptide agonist, SEQ ID NO: 29 (peptide)
peptide: TKFTLSLDVPTNIMNLLFNIAKAKNLRCQAAANAHLMAQI-NH2
Log DR against h-SCP, cAMP: 0 log10 ratio | pA50, cAMP: 9.47 -log M

B3: Cys-variant CRHR2 peptide agonist, SEQ ID NO: 16 (peptide)
peptide: TKFTLSLDVPTNIMCLLFNIAKAKNLRAQAAANAHLMAQI-NH2
Log DR against h-SCP, cAMP: 0.76 log10 ratio | pA50, cAMP: 8.93 -log M

B4: Cys-variant CRHR2 peptide agonist, SEQ ID NO: 25 (peptide)
peptide: TKFTLSLDVPTNIMNLLFNIAKACNLRAQAAANAHLMAQI-NH2
Log DR against h-SCP, cAMP: 0.35 log10 ratio | pA50, cAMP: 9.17 -log M

B5: Cys-variant CRHR2 peptide agonist, SEQ ID NO: 24 (peptide)
peptide: TKFTLSLDVPTNIMNLLFNIAKCKNLRAQAAANAHLMAQI-NH2
Log DR against h-SCP, cAMP: 0.74 log10 ratio | pA50, cAMP: 8.94 -log M

B6: Cys-variant CRHR2 peptide agonist, SEQ ID NO: 33 (peptide)
peptide: TKFTLSLDVPTNIMNLLFNIAKAKNLRAQAACNAHLMAQI-NH2
Log DR against h-SCP, cAMP: 0.45 log10 ratio | pA50, cAMP: 9.07 -log M

B7: Pegylated Cys-variant CRHR2 peptide agonist (NES linker, PEG about 20 kDa), SEQ ID NO: 66 (peptide)
peptide: TKFTLSLDVPTCIMNLLFNIAKAKNLRAQAAANAHLMAQI
modifications: NES-PEG (about 20 kDa) on Cys 12; C-terminal amide
Log DR against h-SCP, cAMP: 1.26 log10 ratio | pA50, cAMP: 8.31 -log M

B15: Pegylated Cys-variant CRHR2 peptide agonist (NES linker, PEG about 20 kDa), SEQ ID NO: 68 (peptide)
peptide: B7 peptide with C12N, M14C
modifications: NES-PEG (about 20 kDa) on Cys 14; C-terminal amide
Log DR against h-SCP, cAMP: ~2.61 log10 ratio | pA50, cAMP: ~6.96 -log M

B18: Pegylated Cys-variant CRHR2 peptide agonist (NES linker, PEG about 20 kDa), SEQ ID NO: 67 (peptide)
peptide: B7 peptide with C12N, I13C
modifications: NES-PEG (about 20 kDa) on Cys 13; C-terminal amide
Log DR against h-SCP, cAMP: > 3 log10 ratio | pA50, cAMP: ~6.35 -log M

Second part, the binder after the results:

Log DR against h-SCP, cAMP: > 3.68 log10 ratio | pA50, cAMP: ~6 -log M
B8: Pegylated Cys-variant CRHR2 peptide agonist (NES linker, PEG about 20 kDa), SEQ ID NO: 87 (peptide)
peptide: B7 peptide with C12N, N33C
modifications: NES-PEG (about 20 kDa) on Cys 33; C-terminal amide

Log DR against h-SCP, cAMP: ~2.26 log10 ratio | pA50, cAMP: ~7.35 -log M
B9: Pegylated Cys-variant CRHR2 peptide agonist (NES linker, PEG about 20 kDa), SEQ ID NO: 71 (peptide)
peptide: B7 peptide with C12N, L17C
modifications: NES-PEG (about 20 kDa) on Cys 17; C-terminal amide

Log DR against h-SCP, cAMP: ~2.84 log10 ratio | pA50, cAMP: ~6.82 -log M
B10: Pegylated Cys-variant CRHR2 peptide agonist (NES linker, PEG about 20 kDa), SEQ ID NO: 84 (peptide)
peptide: B7 peptide with C12N, A30C
modifications: NES-PEG (about 20 kDa) on Cys 30; C-terminal amide

Log DR against h-SCP, cAMP: 2.09 log10 ratio | pA50, cAMP: 7.45 -log M
B11: Pegylated Cys-variant CRHR2 peptide agonist (NES linker, PEG about 20 kDa), SEQ ID NO: 69 (peptide)
peptide: B7 peptide with C12N, N15C
modifications: NES-PEG (about 20 kDa) on Cys 15; C-terminal amide

Log DR against h-SCP, cAMP: 1.63 log10 ratio | pA50, cAMP: 7.91 -log M
B12: Pegylated Cys-variant CRHR2 peptide agonist (NES linker, PEG about 20 kDa), SEQ ID NO: 83 (peptide)
peptide: B7 peptide with C12N, Q29C
modifications: NES-PEG (about 20 kDa) on Cys 29; C-terminal amide

Log DR against h-SCP, cAMP: 1.75 log10 ratio | pA50, cAMP: 7.6 -log M
B13: Pegylated Cys-variant CRHR2 peptide agonist (NES linker, PEG about 20 kDa), SEQ ID NO: 80 (peptide)
peptide: B7 peptide with C12N, L26C
modifications: NES-PEG (about 20 kDa) on Cys 26; C-terminal amide

Log DR against h-SCP, cAMP: 1.82 log10 ratio | pA50, cAMP: 7.83 -log M
B14: Pegylated Cys-variant CRHR2 peptide agonist (NES linker, PEG about 20 kDa), SEQ ID NO: 81 (peptide)
peptide: B7 peptide with C12N, R27C
modifications: NES-PEG (about 20 kDa) on Cys 27; C-terminal amide

Log DR against h-SCP, cAMP: 1.27 log10 ratio | pA50, cAMP: 8.27 -log M
B16: Pegylated Cys-variant CRHR2 peptide agonist (NES linker, PEG about 20 kDa), SEQ ID NO: 77 (peptide)
peptide: B7 peptide with C12N, A23C
modifications: NES-PEG (about 20 kDa) on Cys 23; C-terminal amide

Log DR against h-SCP, cAMP: 1.5 log10 ratio | pA50, cAMP: 8.04 -log M
B17: Pegylated Cys-variant CRHR2 peptide agonist (NES linker, PEG about 20 kDa), SEQ ID NO: 72 (peptide)
peptide: B7 peptide with C12N, F18C
modifications: NES-PEG (about 20 kDa) on Cys 18; C-terminal amide

Log DR against h-SCP, cAMP: ~2.07 log10 ratio | pA50, cAMP: ~7.34 -log M
B19: Pegylated Cys-variant CRHR2 peptide agonist (NES linker, PEG about 20 kDa), SEQ ID NO: 70 (peptide)
peptide: B7 peptide with C12N, L16C
modifications: NES-PEG (about 20 kDa) on Cys 16; C-terminal amide

Log DR against h-SCP, cAMP: 0.82 log10 ratio | pA50, cAMP: 8.79 -log M
B20: Pegylated Cys-variant CRHR2 peptide agonist (NES linker, PEG about 20 kDa), SEQ ID NO: 86 (peptide)
peptide: B7 peptide with C12N, A32C
modifications: NES-PEG (about 20 kDa) on Cys 32; C-terminal amide

Log DR against h-SCP, cAMP: 1.11 log10 ratio | pA50, cAMP: 8.5 -log M
B21: Pegylated Cys-variant CRHR2 peptide agonist (NES linker, PEG about 20 kDa), SEQ ID NO: 79 (peptide)
peptide: B7 peptide with C12N, N25C
modifications: NES-PEG (about 20 kDa) on Cys 25; C-terminal amide

Log DR against h-SCP, cAMP: 2.7 log10 ratio | pA50, cAMP: 6.84 -log M
B22: Pegylated Cys-variant CRHR2 peptide agonist (NES linker, PEG about 20 kDa), SEQ ID NO: 76 (peptide)
peptide: B7 peptide with C12N, K22C
modifications: NES-PEG (about 20 kDa) on Cys 22; C-terminal amide
